Assay results reported in the supplement of paper PMC10567573.

B1: KLHL12 (parent)
chain: SMTTPRCYVGATVLRGRLYAIAGY

Variants of: B1
Experiment: protein stability index of a GFP-peptide fusion (GPS, HEK-293T) (PSI 1-6); higher = more stable
Details: c terminus: a fixed tail appended
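Also: lentivirally expressed fusions sorted by FACS into six bins by GFP to DsRed ratio, PSI derived from sequencing read proportions per bin multiplied by bin number.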

Variant	protein stability index
SLTTPRCYVGATVLRGRLYAIAGY [M2L]	2.64
SRTTPRCYVGATVLRGRLYAIAGY [M2R]	2.35
SQTTPRCYVGATVLRGRLYAIAGY [M2Q]	1.48
SYTTPRCYVGATVLRGRLYAIAGY [M2Y]	2.77
SETTPRCYVGATVLRGRLYAIAGY [M2E]	1.68
SFTTPRCYVGATVLRGRLYAIAGY [M2F]	3.06
SNTTPRCYVGATVLRGRLYAIAGY [M2N]	2.96
SPTTPRCYVGATVLRGRLYAIAGY [M2P]	1.33
SSTTPRCYVGATVLRGRLYAIAGY [M2S]	3.02
SHTTPRCYVGATVLRGRLYAIAGY [M2H]	1.93
SVTTPRCYVGATVLRGRLYAIAGY [M2V]	1.97
SATTPRCYVGATVLRGRLYAIAGY [M2A]	2.19
SMTTPRCYVGATVLRGRLYFIAGY [A20F]	2.38
SMTTPRCYVGATVLRGRLYPIAGY [A20P]	2.26
SMTTPRCYVGATVLRGRLYQIAGY [A20Q]	2.45
SMTTPRCYVGATVLRGRLYNIAGY [A20N]	1.72
SMTTPRCYVGATVLRGRLYMIAGY [A20M]	2.23
SMTTPRCYVGATVLRGRLYVIAGY [A20V]	3.5
SMTTPRCYVGATVLRGRLYTIAGY [A20T]	1.01
SMTTPRCYVGATVLRGTLYAIAGY [R17T]	1.92
SMTTPRCYVGATVLRGMLYAIAGY [R17M]	3.27
SMTTPRCYVGATVLRGVLYAIAGY [R17V]	2.35
SMTTPRCYVGATVLRGDLYAIAGY [R17D]	1.88
SMTTPRCYVGATVLRGNLYAIAGY [R17N]	2.17

Variant	protein stability index
SMTTPRCYVSATVLRGRLYAIAGY [G10S]	1.02
SMTTPRCYVCATVLRGRLYAIAGY [G10C]	2.8
SMTTPRCYVDATVLRGRLYAIAGY [G10D]	1.1
SMTTPRCYVPATVLRGRLYAIAGY [G10P]	1.91
SMTTPRCYVEATVLRGRLYAIAGY [G10E]	3.01
SMTTPRCYVLATVLRGRLYAIAGY [G10L]	2.13
SMTTPRCYVTATVLRGRLYAIAGY [G10T]	3.52
SMTRPRCYVGATVLRGRLYAIAGY [T4R]	2.16
SMTKPRCYVGATVLRGRLYAIAGY [T4K]	2.69
SMTAPRCYVGATVLRGRLYAIAGY [T4A]	1
SMTVPRCYVGATVLRGRLYAIAGY [T4V]	2.65
SMTLPRCYVGATVLRGRLYAIAGY [T4L]	2.16
SMTIPRCYVGATVLRGRLYAIAGY [T4I]	2.44
SMTPPRCYVGATVLRGRLYAIAGY [T4P]	1.93
SMTMPRCYVGATVLRGRLYAIAGY [T4M]	3.38
SMTNPRCYVGATVLRGRLYAIAGY [T4N]	3.79
SMTTPRCYVGATVLDGRLYAIAGY [R15D]	2.78
SMTTPRCYVGATVLPGRLYAIAGY [R15P]	1.88
SMTTPRCYVGATVLYGRLYAIAGY [R15Y]	3.51
SMTTPRCYVGATVLIGRLYAIAGY [R15I]	2.18
SMTTPRCYVGATVLGGRLYAIAGY [R15G]	2.98
SMTTPRCYVGATVLAGRLYAIAGY [R15A]	2.33
SMTTPRCYVGATVLCGRLYAIAGY [R15C]	3.81
SMTTPRCYVGATVLQGRLYAIAGY [R15Q]	1.46

Variant	protein stability index
SMTTPRCYVGATVLNGRLYAIAGY [R15N]	1.95
SMTTPRCYVGAVVLRGRLYAIAGY [T12V]	3.43
SMTTPRCYVGAIVLRGRLYAIAGY [T12I]	2.46
SMTTPRCYVGALVLRGRLYAIAGY [T12L]	2.77
SMTTPRCYVGANVLRGRLYAIAGY [T12N]	2.87
SMTTPRCYVGASVLRGRLYAIAGY [T12S]	1.63
SMTTPRCYVGAEVLRGRLYAIAGY [T12E]	1.1
SMTTPRCYVGAFVLRGRLYAIAGY [T12F]	2.4
SMTTPRCYVGARVLRGRLYAIAGY [T12R]	2.21
SMTTPRCYVGACVLRGRLYAIAGY [T12C]	2.41
SMTTPRCYVGAPVLRGRLYAIAGY [T12P]	1.94
SMTTPRCYVGAKVLRGRLYAIAGY [T12K]	2.48
SMTTPRCYVGATVLRGRLYAIAWY [G23W]	2.54
SMTTPRCYVGATVLRGRLYAIAMY [G23M]	2.83
SMTTPRCYVGATVLRGRLYAIAGG [Y24G]	2.13
SMTTPRCYVGATVLRGRLYAIAGW [Y24W]	2.45
SMTTPRCYVGATVLRGRLYAIAGP [Y24P]	2.64
SMTTPRCYVGATVLRGRLYAIAGT [Y24T]	1.82
SMTTPRCYVGATVLRGRLYAIAGI [Y24I]	2.45
SMTTPRCYVGATVLRGRLYAIAGR [Y24R]	1.95
SMTTPRCYVGATVLRGRLYAIAGE [Y24E]	2.33
SMTTPRCYVGATVLRGRLYAIAGL [Y24L]	2.46
SMTTPRCYVGATVLRGRLYAIDGY [A22D]	2.12
SMTTPRCYVGATVLRGRLYAIPGY [A22P]	2.08

Variant	protein stability index
SMTTPRCYVGATVLRGRLYAIVGY [A22V]	1.94
SMTTPRCYVGATVLRGRLYAISGY [A22S]	1.26
SMTTPRCYVGATVLRGRLYAIIGY [A22I]	3.06
SMTTPRCYVGATVLRGRLYAITGY [A22T]	1.69
SMTTPRCYVGATVLRGRLYAIFGY [A22F]	2.3
SMTTPRCYVGATVLRGRLYAICGY [A22C]	3.97
SMTTPRCYVGATVLRGRLYAIEGY [A22E]	2.3
SMTTPRCYVGATVLRGRLIAIAGY [Y19I]	3.51
SMTTPRCYVGATVLRGRLHAIAGY [Y19H]	1.72
SMTTPRCYVGATVLRGRLKAIAGY [Y19K]	1.79
SMTTPRCYVGATVLRGRLTAIAGY [Y19T]	2.02
SMTTPRCYVGATVLRGRLDAIAGY [Y19D]	1.99
SMTTPRCYVGATVLRGRLCAIAGY [Y19C]	2.91
SMTTPRCYVGATVLRGRLQAIAGY [Y19Q]	2.11
SMTTPRCEVGATVLRGRLYAIAGY [Y8E]	1.06
SMTTPRCPVGATVLRGRLYAIAGY [Y8P]	1.71
SMTTPRCDVGATVLRGRLYAIAGY [Y8D]	1.71
SMTTPRCQVGATVLRGRLYAIAGY [Y8Q]	2.18
SMTTPRCLVGATVLRGRLYAIAGY [Y8L]	2.48
SMTTPRCWVGATVLRGRLYAIAGY [Y8W]	1.82
SMTTPRCKVGATVLRGRLYAIAGY [Y8K]	2.88
SMTTPRCHVGATVLRGRLYAIAGY [Y8H]	1.74
SMTTPRCAVGATVLRGRLYAIAGY [Y8A]	2
SMTTPRCTVGATVLRGRLYAIAGY [Y8T]	2.12

Variant	protein stability index
SMTTYRCYVGATVLRGRLYAIAGY [P5Y]	2.19
SMTTRRCYVGATVLRGRLYAIAGY [P5R]	4.23
SMTTPRCYVGATPLRGRLYAIAGY [V13P]	1.95
SMTTPRCYVGATQLRGRLYAIAGY [V13Q]	2.85
SMTTPRCYVGATYLRGRLYAIAGY [V13Y]	2.03
SMTTPRCYVGATELRGRLYAIAGY [V13E]	2.69
SMTTPRCYVGATCLRGRLYAIAGY [V13C]	1.58
SMTTPRCYVGATALRGRLYAIAGY [V13A]	1.83
SMTTPRCYVGATHLRGRLYAIAGY [V13H]	3.25
SMTTPRCYVGATFLRGRLYAIAGY [V13F]	1.85
SMTTPRCYVGATLLRGRLYAIAGY [V13L]	3.54
SMTTPRCYVGATVLRIRLYAIAGY [G16I]	3.21
SMTTPRCYVGATVLRVRLYAIAGY [G16V]	3.05
SMTTPRCYVGATVLRTRLYAIAGY [G16T]	2.04
SMTTPRCYVGATVLRWRLYAIAGY [G16W]	1.48
SMTTPRCYVGATVLRQRLYAIAGY [G16Q]	1.45
SMTTPRCYVGATVLRKRLYAIAGY [G16K]	1.77
SMTTPRCYVGATVLRCRLYAIAGY [G16C]	2.22
SMQTPRCYVGATVLRGRLYAIAGY [T3Q]	2.67
SMYTPRCYVGATVLRGRLYAIAGY [T3Y]	1.62
SMLTPRCYVGATVLRGRLYAIAGY [T3L]	2.72
SMCTPRCYVGATVLRGRLYAIAGY [T3C]	2.75
SMPTPRCYVGATVLRGRLYAIAGY [T3P]	1.59
SMSTPRCYVGATVLRGRLYAIAGY [T3S]	2.31

Variant	protein stability index
SMKTPRCYVGATVLRGRLYAIAGY [T3K]	2.08
SMATPRCYVGATVLRGRLYAIAGY [T3A]	2.97
SMNTPRCYVGATVLRGRLYAIAGY [T3N]	1.46
MMTTPRCYVGATVLRGRLYAIAGY [S1M]	1.89
EMTTPRCYVGATVLRGRLYAIAGY [S1E]	1.66
AMTTPRCYVGATVLRGRLYAIAGY [S1A]	1.85
FMTTPRCYVGATVLRGRLYAIAGY [S1F]	2.24
HMTTPRCYVGATVLRGRLYAIAGY [S1H]	1.51
RMTTPRCYVGATVLRGRLYAIAGY [S1R]	3.81
LMTTPRCYVGATVLRGRLYAIAGY [S1L]	3.32
SMTTPRCYVGYTVLRGRLYAIAGY [A11Y]	2.99
SMTTPRCYVGKTVLRGRLYAIAGY [A11K]	2.19
SMTTPRCYVGQTVLRGRLYAIAGY [A11Q]	2.32
SMTTPRCYVGSTVLRGRLYAIAGY [A11S]	1.04
SMTTPRCYVGDTVLRGRLYAIAGY [A11D]	1.42
SMTTPRCYVGHTVLRGRLYAIAGY [A11H]	1.8
SMTTPRCYVGRTVLRGRLYAIAGY [A11R]	3.02
SMTTPRCYVGATVLRGRKYAIAGY [L18K]	1.75
SMTTPRCYVGATVLRGRRYAIAGY [L18R]	1.9
SMTTPRCYVGATVLRGRTYAIAGY [L18T]	1.78
SMTTPRCYVGATVLRGRCYAIAGY [L18C]	2.93
SMTTPRCYVGATVLRGRSYAIAGY [L18S]	1.36
SMTTPRCYVGATVLRGRMYAIAGY [L18M]	1.72
SMTTPRCYVGATVLRGRFYAIAGY [L18F]	2.67

Variant	protein stability index
SMTTPRCYVGATVLRGRYYAIAGY [L18Y]	2.68
SMTTPRCYVGATVLRGREYAIAGY [L18E]	1.95
SMTTPRCYVGATVLRGRLYASAGY [I21S]	1.2
SMTTPRCYVGATVLRGRLYADAGY [I21D]	1.46
SMTTPRCYVGATVLRGRLYAVAGY [I21V]	2.33
SMTTPRCYVGATVLRGRLYALAGY [I21L]	2.73
SMTTPRCYVGATVLRGRLYAEAGY [I21E]	1.78
SMTTPRCYVGATVLRGRLYARAGY [I21R]	1.93
SMTTPRCYVGATVLRGRLYACAGY [I21C]	1.37
SMTTPRCYVGATVLRGRLYAKAGY [I21K]	1.57
SMTTPRCYPGATVLRGRLYAIAGY [V9P]	1.7
SMTTPRCYAGATVLRGRLYAIAGY [V9A]	2
SMTTPRCYYGATVLRGRLYAIAGY [V9Y]	3.18
SMTTPRCYKGATVLRGRLYAIAGY [V9K]	1.63
SMTTPRCYRGATVLRGRLYAIAGY [V9R]	3.6
SMTTPRCYFGATVLRGRLYAIAGY [V9F]	2.87
SMTTPRCYMGATVLRGRLYAIAGY [V9M]	2.43
SMTTPRCYWGATVLRGRLYAIAGY [V9W]	2.17
SMTTPRDYVGATVLRGRLYAIAGY [C7D]	2.41
SMTTPRPYVGATVLRGRLYAIAGY [C7P]	1.06
SMTTPRLYVGATVLRGRLYAIAGY [C7L]	3.82
SMTTPRTYVGATVLRGRLYAIAGY [C7T]	2.16
SMTTPRIYVGATVLRGRLYAIAGY [C7I]	3.84
SMTTPRHYVGATVLRGRLYAIAGY [C7H]	1.16

Variant	protein stability index
SMTTPRRYVGATVLRGRLYAIAGY [C7R]	2.43
SMTTPTCYVGATVLRGRLYAIAGY [R6T]	1.53
SMTTPGCYVGATVLRGRLYAIAGY [R6G]	1.27
SMTTPNCYVGATVLRGRLYAIAGY [R6N]	2.26
SMTTPFCYVGATVLRGRLYAIAGY [R6F]	2.04
SMTTPKCYVGATVLRGRLYAIAGY [R6K]	2.04
SMTTPRCYVGATVERGRLYAIAGY [L14E]	1.93
SMTTPRCYVGATVKRGRLYAIAGY [L14K]	1.93
SMTTPRCYVGATVQRGRLYAIAGY [L14Q]	2.76
SMTTPRCYVGATVSRGRLYAIAGY [L14S]	1.9
SMTTPRCYVGATVRRGRLYAIAGY [L14R]	1.99
SMTTPRCYVGATVCRGRLYAIAGY [L14C]	2.48
SMTTPRCYVGATVDRGRLYAIAGY [L14D]	1.58
SMTTPRCYVGATVARGRLYAIAGY [L14A]	1.79
SMTTPRCYVGATVGRGRLYAIAGY [L14G]	1.55
SMTTPRCYVGATVNRGRLYAIAGY [L14N]	1.17
SMTTPRCYVGATVYRGRLYAIAGY [L14Y]	3.61
SMTTPRCYVGATVWRGRLYAIAGY [L14W]	3.9
SMTTPRCYVGATVTRGRLYAIAGY [L14T]	2.5
SMTTPRCYVGATVPRGRLYAIAGY [L14P]	2.01
